The chains are these.
B1: IkB-like protein (African swine fever virus (isolate Tick/Malawi/Lil 20-1/1983)), O36972 (parent)
chain: MDTIGLFSVEAEHLFVEWVKKCIKKGDLTLFETLFNADPWIVNRCNKNKITVFMLICIYGRLDFLRFLFKQESYPGEIVNHYRRDKDGNSAWHYLAEKNNHLLLEEVLDYFGKNGIRVCFPNFNGVTPIMKAAMRGRTLSVLSLLKYGANPNRKDYLKGFTTWDWAVFTGHADLVKTLNKGYQKPLFMHFPLYKLDVFHRRFKKKPKIIITGCEDNVYEKLPEQNSNFLCVKKLNKYGK

This test covers variants of B1. The following applies: with PPP3CA.
With F228A;L229A;V231A;K232A, the “effect of a mutation on the interaction” value is listed as “disrupting interaction strength”.

(Values after IntAct's records for PubMed 23468591.)
